{"source": "patent US11278600B2", "about": "“Human alpha-galactosidase variants” (Codexis, Inc., priority 2014, dated 2022)", "format_in_all_cases": "biochemical", "key": {"[1]": {"test": "HTP-analysis of supernatants pretreated with bovine serum (MUGal hydrolysis)", "conditions": "activity of the variant/activity of Rd2BB (SEQ ID NO: 10), yeast culture supernatant", "procedure,_shortened": "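Yeast INVSc1 culture supernatants containing secreted GLA variants were mixed with bovine serum (20:80) and held 1 h at 37° C. Serum-treated samples then reacted with MUGal (4 mM stock) in citrate/McIlvaine buffer (pH 4.3/4.8) for 180 min at 37° C., were quenched with sodium carbonate, and read by fluorescence (Ex 355, Em 448 nm).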"}, "[2]": {"test": "HTP-analysis of supernatants pretreated with base (MUGal hydrolysis)", "conditions": "challenge at pH 7.6; activity of the variant/activity of Rd2BB (SEQ ID NO: 10); yeast culture supernatant", "procedure,_shortened": "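GLA variants secreted from yeast INVSc1; culture supernatants pre-incubated with McIlvaine buffer pH 7.0–8.2 or 200 mM bicarbonate pH 9.1–9.7 at 37° C. for 1–18 h. Residual activity: MUGal (4 mM stock) hydrolysis at pH 4.3–4.8, 37° C., 30–180 min, carbonate quench; fluorescence Ex 355/Em 448 nm.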"}, "[3]": {"test": "HTP-analysis of yeast culture supernatants, no challenge (MUGal hydrolysis)", "conditions": "activity of the variant/activity of Rd2BB (SEQ ID NO: 10), yeast culture supernatant", "procedure,_shortened": "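GLA variants were expressed in INVSc1 yeast grown in SD-Ura broth with glucose at 30° C., and culture supernatants were collected after 66-84 h. Supernatant was mixed with McIlvaine buffer pH 4.8 and MUGal (2 mM stock) in 50 mM citrate, 200 mM KCl, pH 4.6, incubated at 37° C. for 30-180 minutes, then quenched with sodium carbonate.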"}, "[4]": {"test": "HTP-analysis of supernatants pretreated with acid (MUGal hydrolysis)", "conditions": "challenge at pH 4.2; activity of the variant/activity of Rd2BB (SEQ ID NO: 10); yeast culture supernatant", "procedure,_shortened": "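Fluorescence of MUGal hydrolysis (Ex. 355 nm, Em. 448 nm) is read after sodium carbonate quench. The enzyme source is INVSc1 yeast culture supernatant, first exposed to pH 3.3-4.3 McIlvaine buffer at 37° C. for 1-3 h, then reacted at pH 4.8 for 30-180 minutes.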"}}}
{"molecule": "285 (protein, Synthetic Polypeptide sequence of Variant No. 285 of mature Human GLA) LDNGLARTPTMGWLHWERFMCNLDCQEEPDSCISEKLFMEMAERMVSEGWKDAGYEYLCIDDCWMAPQRDSEGRLQADPQRFPHGIRQLANYVHSIGLKLGIYADVGNKTCAGFPGSFGYYDIDAQTFADWGVDLLKFDGCYCDSLENLADGYKHMSLALNRTGRSIVYSCEWPLYMWPFQKPNYTEIRQYCNHWRNFADIDDSWASIKSILDWTSFNQERIVDVAGPGGWNDPDMLVIGNFGLSWNQQVTQMALWAIMAAPLFMSNDLRHISPQAKALLQDKDVIAINQDPLGKQGYQLRQGDNFEVWERPLSGLAWAVAMINRQEIGGPRSYTIAVASLGKGVACNPACFITQLLPVKRKLGFYEWTSRLRSHINPTGTVLLQLENTMQMSLKDLL", "values": [{"measurement": "Relative Activity of GLA Variants After Challenge with Serum", "setting": "[1]", "result": "+ (+ = 0.5 to 1.5 relative activity over Rd2BB (SEQ ID NO: 10))"}, {"measurement": "Relative Activity of GLA Variants After Challenge at pH 7.6", "setting": "[2]", "result": "++ (++ = 1.5 to 2.5 relative activity over Rd2BB (SEQ ID NO: 10))"}, {"measurement": "Relative Activity of GLA Variants After No Challenge (NC)", "setting": "[3]", "result": "+ (+ = 0.5 to 1.5 relative activity over Rd2BB (SEQ ID NO: 10))"}, {"measurement": "Relative Activity of GLA Variants After Challenge at pH 4.2", "setting": "[4]", "result": "+ (+ = 0.5 to 1.5 relative activity over Rd2BB (SEQ ID NO: 10))"}]}
{"molecule": "291 (protein, Synthetic Polypeptide sequence of Variant No. 291 of mature Human GLA) LDNGLARTPTMGWLHWERFMCNLDCQEEPDSCISEKLFMEMAERMVSEGWKDAGYEYLCIDDCWMAPQRDSEGRLQADPQRFPHGIRQLANYVHSKGLKFGIYADVGNKTCAGFPGSFGYYDIDAQTFADWGVDLLKFDGCYCDSLENLADGYKHMSLALNRTGRSIVYSCEWPLYMWPFQKPNYTEIRQYCNHWRNFADIDDSWASIKSILDWTSFNQERIVDVAGPGGWNDPDMLVIGNFGLSWNQQVTQMALWAIMAAPLFMSNDLRHISPQAKALLQDKDVIAINQDPLGKQGYQLRQGDNFEVWERPLSGLAWAVAMINRQEIGGPRSYTIAVASLGKGVACNPACFITQLLPVKRKLGLYEWTSRLRSHINPTGTVLLQLENTMQMSLKDLL", "values": [{"measurement": "Relative Activity of GLA Variants After Challenge with Serum", "setting": "[1]", "result": "+ (+ = 0.5 to 1.5 relative activity over Rd2BB (SEQ ID NO: 10))"}, {"measurement": "Relative Activity of GLA Variants After Challenge at pH 7.6", "setting": "[2]", "result": "+ (+ = 0.5 to 1.5 relative activity over Rd2BB (SEQ ID NO: 10))"}, {"measurement": "Relative Activity of GLA Variants After No Challenge (NC)", "setting": "[3]", "result": "+ (+ = 0.5 to 1.5 relative activity over Rd2BB (SEQ ID NO: 10))"}, {"measurement": "Relative Activity of GLA Variants After Challenge at pH 4.2", "setting": "[4]", "result": "+ (+ = 0.5 to 1.5 relative activity over Rd2BB (SEQ ID NO: 10))"}]}
{"molecule": "287 (protein, Synthetic Polypeptide sequence of Variant No. 287 of mature Human GLA) LDNGLARTPTMGWLHWERFMCNLDCQEEPDSCISEKLFMEMAERMVSEGWKDAGYEYLCIDDCWMAPQRDSEGRLQADPQRFPHGIRQLANYVHSKGLKLGIYADVGNKTCAGFPGSFGYYDIDAQTFADWGVDLLKFDGCYCDSLENLADGYKHMSLALNRTGRSIVYSCEWPLYMWPFQKPNYTEIRQYCNHWRNFADIDDSWASIKSILDWTSRNQERIVDVAGPGGWNDPDMLVIGNFGLSWDQQVTQMALWAIMAAPLFMSNDLRHISPQAKALLQDKDVIAINQDPLGKQGYQLRKGDNFEVWERPLSGLAWAVAMINRQEIGGPRSYTIPVASLGKGVACNPGCFITQLLPVKRKLGFYEWTSRLRSHINPTGTVLLQLENTMQMSLKDLL", "values": [{"measurement": "Relative Activity of GLA Variants After Challenge with Serum", "setting": "[1]", "result": "++ (++ = 1.5 to 2.5 relative activity over Rd2BB (SEQ ID NO: 10))"}, {"measurement": "Relative Activity of GLA Variants After Challenge at pH 7.6", "setting": "[2]", "result": "+++ (+++ = >2.5 relative activity over Rd2BB (SEQ ID NO: 10))"}, {"measurement": "Relative Activity of GLA Variants After No Challenge (NC)", "setting": "[3]", "result": "+++ (+++ = >2.5 relative activity over Rd2BB (SEQ ID NO: 10))"}, {"measurement": "Relative Activity of GLA Variants After Challenge at pH 4.2", "setting": "[4]", "result": "+++ (+++ = >2.5 relative activity over Rd2BB (SEQ ID NO: 10))"}]}
{"molecule": "289 (protein, Synthetic Polypeptide sequence of Variant No. 289 of mature Human GLA) LDNGLARTPTMGWLHWERFMCNLDCQEEPDSCISEKLFMEMAERMVSEGWKDAGYEYLCIDDCWMAPQRDSEGRLQADPQRFPHGIRQLANYVHSIGLKLGIYADVGNKTCAGFPGSFGYYDIDAQTFADWGVDLLKFDGCYCDSLENLADGYKHMSLALNRTGRSIVYSCEWPLYMWPFQKPNYTEIRQYCNHWRNFADIDDSWASIKSILDWTSRNQERIVDVAGPGGWNDPDMLVIGNFGLSWNQQVTQMALWAIMAAPLFMSNDLRHISPQAKALLQDKDVIAINQDPLGKQGYQLRKGDNFEVWERPLSGLAWAVAMINRQEIGGPRSYTIAVASLGKGVACNPGCFITQLLPVKRKLGFYEWTSRLRSHINPTGTVLLQLENTMQMSLKDLL", "values": [{"measurement": "Relative Activity of GLA Variants After Challenge with Serum", "setting": "[1]", "result": "++ (++ = 1.5 to 2.5 relative activity over Rd2BB (SEQ ID NO: 10))"}, {"measurement": "Relative Activity of GLA Variants After Challenge at pH 7.6", "setting": "[2]", "result": "++ (++ = 1.5 to 2.5 relative activity over Rd2BB (SEQ ID NO: 10))"}, {"measurement": "Relative Activity of GLA Variants After No Challenge (NC)", "setting": "[3]", "result": "+ (+ = 0.5 to 1.5 relative activity over Rd2BB (SEQ ID NO: 10))"}, {"measurement": "Relative Activity of GLA Variants After Challenge at pH 4.2", "setting": "[4]", "result": "++ (++ = 1.5 to 2.5 relative activity over Rd2BB (SEQ ID NO: 10))"}]}
{"molecule": "290 (protein, Synthetic Polypeptide sequence of Variant No. 290 of mature Human GLA) LDNGLARTPTMGWLHWERFMCNLDCQEEPDSCISEKLFMEMAERMVSEGWKDAGYEYLCIDDCWMAPQRDSEGRLQADPQRFPHGIRQLANYVHSIGLKLGIYADVGNKTCAGFPGSFGYYDIDAQTFADWGVDLLKFDGCYCDSLENLADGYKHMSLALNRTGRSIVYSCEWPLYMWPFQKPNYTEIRQYCNHWRNFADIDDSWASIKSILDWTSFNQERIVDVAGPGGWNDPDMLVIGNFGLSWDQQVTQMALWAIMAAPLFMSNDLRHISPQAKALLQDKDVIAINQDPLGKQGYQLRQGDNFEVWERPLSGDAWAVAMINRQEIGGPRSYTIPVASLGKGVACNPGCFITQLLPVKRKLGFYDWDSRLRSHINPTGTVLLQLENTMQMSLKDLL", "values": [{"measurement": "Relative Activity of GLA Variants After Challenge with Serum", "setting": "[1]", "result": "+++ (+++ = >2.5 relative activity over Rd2BB (SEQ ID NO: 10))"}, {"measurement": "Relative Activity of GLA Variants After Challenge at pH 7.6", "setting": "[2]", "result": "+++ (+++ = >2.5 relative activity over Rd2BB (SEQ ID NO: 10))"}, {"measurement": "Relative Activity of GLA Variants After No Challenge (NC)", "setting": "[3]", "result": "+++ (+++ = >2.5 relative activity over Rd2BB (SEQ ID NO: 10))"}, {"measurement": "Relative Activity of GLA Variants After Challenge at pH 4.2", "setting": "[4]", "result": "+++ (+++ = >2.5 relative activity over Rd2BB (SEQ ID NO: 10))"}]}
{"molecule": "286 (protein, Synthetic Polypeptide sequence of Variant No. 286 of mature Human GLA) LDNGLARTPTMGWLHWERFMCNLDCQEEPDSCISEKLFMEMAERMVSEGWKDAGYEYLCIDDCWMAPQRDSEGRLQADPQRFPHGIRQLANYVHSIGLKLGIYADVGNKTCAGFPGSFGYYDIDAQTFADWGVDLLKFDGCYCDSLENLADGYKHMSLALNRTGRSIVYSCEWPLYMWPFQKPNYTEIRQYCNHWRNFADIDDSWASIKSILDWTSRNQERIVDVAGPGGWNDPDMLVIGNFGLSWDQQVTQMALWAIMAAPLFMSNDLRHISPQAKALLQDKDVIAINQDPLGKQGYQLRQGDNFEVWERPLSGLAWAVAMINRQEIGGPRSYTIAVASLGKGVACNPACFITQLLPVKRKLGFYEWTSRLRSHINPTGTVLLQLENTMQMSLKDLL", "values": [{"measurement": "Relative Activity of GLA Variants After Challenge with Serum", "setting": "[1]", "result": "+ (+ = 0.5 to 1.5 relative activity over Rd2BB (SEQ ID NO: 10))"}, {"measurement": "Relative Activity of GLA Variants After Challenge at pH 7.6", "setting": "[2]", "result": "++ (++ = 1.5 to 2.5 relative activity over Rd2BB (SEQ ID NO: 10))"}, {"measurement": "Relative Activity of GLA Variants After No Challenge (NC)", "setting": "[3]", "result": "+ (+ = 0.5 to 1.5 relative activity over Rd2BB (SEQ ID NO: 10))"}, {"measurement": "Relative Activity of GLA Variants After Challenge at pH 4.2", "setting": "[4]", "result": "+ (+ = 0.5 to 1.5 relative activity over Rd2BB (SEQ ID NO: 10))"}]}
{"molecule": "288 (protein, Synthetic Polypeptide sequence of Variant No. 288 of mature Human GLA) LDNGLARTPTMGWLHWERFMCNLDCQEEPDSCISEKLFMEMAERMVSEGWKDAGYEYLCIDDCWMAPQRDSEGRLQADPQRFPHGIRQLANYVHSIGLKLGIYADVGNKTCAGFPGSFGYYDIDAQTFADWGVDLLKFDGCYCDSLENLADGYKHMSLALNRTGRSIVYSCEWPLYMWPFQKPNYTEIRQYCNHWRNFADIDDSWASIKSILDWTSRNQERIVDVAGPGGWNDPDMLVIGNFGLSWDQQVTQMALWAIMAAPLFMSNDLRHISPQAKALLQDKDVIAINQDPLGKQGYQLRKGDNFEVWERPLSGLAWAVAMINRQEIGGPRSYTIPVASLGKGVACNPGCFITQLLPVKRKLGFYDWDSRLRSHINPTGTVLLQLENTMQMSLKDLL", "values": [{"measurement": "Relative Activity of GLA Variants After Challenge with Serum", "setting": "[1]", "result": "+++ (+++ = >2.5 relative activity over Rd2BB (SEQ ID NO: 10))"}, {"measurement": "Relative Activity of GLA Variants After Challenge at pH 7.6", "setting": "[2]", "result": "+++ (+++ = >2.5 relative activity over Rd2BB (SEQ ID NO: 10))"}, {"measurement": "Relative Activity of GLA Variants After No Challenge (NC)", "setting": "[3]", "result": "+++ (+++ = >2.5 relative activity over Rd2BB (SEQ ID NO: 10))"}, {"measurement": "Relative Activity of GLA Variants After Challenge at pH 4.2", "setting": "[4]", "result": "+++ (+++ = >2.5 relative activity over Rd2BB (SEQ ID NO: 10))"}]}
